We go through 9 substances from article PMC6543813.

Where two headings read alike, the source gives them in different places.

The target of assay [1] is recombinant VLDLR(1–8) fragment of the VLDL receptor. Briefly: SPR.
For assay [2], the target named is (β15–66)2-K^53K^54K^58 mutant fragment (UniProt P02675). The assay can be described thus: ELISA.
Assay [3] concerns the target (β15–66)2-R^30 mutant fragment (UniProt P02675). The assay can be described thus: ELISA.
Assay [4] addresses (β15–66)2-R^57 mutant fragment (UniProt P02675). Briefly: ELISA.
The target of assay [5] is recombinant (β15–66)2-R^17 mutant with Arg17Glu mutation (UniProt P02675). Briefly: ELISA.
Assay [6] addresses (β15–66)2-K^21K^22 mutant fragment (UniProt P02675). Briefly: ELISA.
The target in assay [7] is recombinant dimeric (β15–66)2 fragment (UniProt P02675). The assay can be described thus: ELISA.
Assay [8] has the same target. Briefly: ELISA. The source holds these as a separate data set.
For assay [9], the target named is recombinant VLDLR(1–8) fragment of the VLDL receptor. The assay can be described thus: SPR. The source holds these as a separate data set.

Turning to “(β15–66)2-K^53K^54K^58 mutant fragment (from UniProt P02675 45-94) (domain or fragment)”, the Kd in assay [1] worked out at 250 nM.

“(β15–66)2-K^21K^22R^23 mutant fragment (from UniProt P02675 45-94) (domain or fragment)”: the dissociation constant (Kd) in [1] stood at 175 nM.

“(β15–66)2-R^42R^44K^47 mutant fragment (from UniProt P02675 45-94) (domain or fragment)”: the Kd in assay [1] worked out at 6100 nM.

For “recombinant VLDLR(1–8) fragment of the VLDL receptor (domain or fragment)”, the Kd in assay [2] came to 124 nM; in assay [3], 6.3 nM; in assay [4], 6.4 nM; in assay [5], 7.3 nM; in assay [6], 21 nM; in assay [7] it was 13.5 nM. Further, the Kd in [8] stood at 34.1 nM.

For “recombinant dimeric (β15–66)2 fragment (from UniProt P02675 45-94) (domain or fragment)”, the Kd was 11.1 nM in assay [1] and 20.5 nM in assay [9].

Consider “(β15–66)2-K^21K^22 mutant fragment (from UniProt P02675 45-94) (domain or fragment)”, for which, in [1], the Kd is 37 nM.

As to “(β15–66)2-R^42R^44 mutant fragment (from UniProt P02675 45-94) (domain or fragment)”, the dissociation constant Kd in [1] was found to be 204 nM.

For “recombinant monomeric β15–64 fragment (from UniProt P02675 45-94) (domain or fragment)”, the Kd in [1] was 6100 nM.

On to “(β15–66)2-K^53K^54R^57K^58 mutant fragment (from UniProt P02675 45-94) (domain or fragment)”, for which the dissociation constant Kd in [1] turned out to be 11700 nM.
